# B1: ALK tyrosine kinase receptor (Homo sapiens), Q9UM73 (parent)
# chain: MGAIGLLWLLPLLLSTAAVGSGMGTGQRAGSPAAGPPLQPREPLSYSRLQRKSLAVDFVVPSLFRVYARDLLLPPSSSELKAGRPEARGSLALDCAPLLRLLGPAPGVSWTAGSPAPAEARTLSRVLKGGSVRKLRRAKQLVLELGEEAILEGCVGPPGEAAVGLLQFNLSELFSWWIRQGEGRLRIRLMPEKKASEVGREGRLSAAIRASQPRLLFQIFGTGHSSLESPTNMPSPSPDYFTWNLTWIMKDSFPFLSHRSRYGLECSFDFPCELEYSPPLHDLRNQSWSWRRIPSEEASQMDLLDGPGAERSKEMPRGSFLLLNTSADSKHTILSPWMRSSSEHCTLAVSVHRHLQPSGRYIAQLLPHNEAAREILLMPTPGKHGWTVLQGRIGRPDNPFRVALEYISSGNRSLSAVDFFALKNCSEGTSPGSKMALQSSFTCWNGTVLQLGQACDFHQDCAQGEDESQMCRKLPVGFYCNFEDGFCGWTQGTLSPHTPQWQVRTLKDARFQDHQDHALLLSTTDVPASESATVTSATFPAPIKSSPCELRMSWLIRGVLRGNVSLVLVENKTGKEQGRMVWHVAAYEGLSLWQWMVLPLLDVSDRFWLQMVAWWGQGSRAIVAFDNISISLDCYLTISGEDKILQNTAPKSRNLFERNPNKELKPGENSPRQTPIFDPTVHWLFTTCGASGPHGPTQAQCNNAYQNSNLSVEVGSEGPLKGIQIWKVPATDTYSISGYGAAGGKGGKNTMMRSHGVSVLGIFNLEKDDMLYILVGQQGEDACPSTNQLIQKVCIGENNVIEEEIRVNRSVHEWAGGGGGGGGATYVFKMKDGVPVPLIIAAGGGGRAYGAKTDTFHPERLENNSSVLGLNGNSGAAGGGGGWNDNTSLLWAGKSLQEGATGGHSCPQAMKKWGWETRGGFGGGGGGCSSGGGGGGYIGGNAASNNDPEMDGEDGVSFISPLGILYTPALKVMEGHGEVNIKHYLNCSHCEVDECHMDPESHKVICFCDHGTVLAEDGVSCIVSPTPEPHLPLSLILSVVTSALVAALVLAFSGIMIVYRRKHQELQAMQMELQSPEYKLSKLRTSTIMTDYNPNYCFAGKTSSISDLKEVPRKNITLIRGLGHGAFGEVYEGQVSGMPNDPSPLQVAVKTLPEVCSEQDELDFLMEALIISKFNHQNIVRCIGVSLQSLPRFILLELMAGGDLKSFLRETRPRPSQPSSLAMLDLLHVARDIACGCQYLEENHFIHRDIAARNCLLTCPGPGRVAKIGDFGMARDIYRASYYRKGGCAMLPVKWMPPEAFMEGIFTSKTDTWSFGVLLWEIFSLGYMPYPSKSNQEVLEFVTSGGRMDPPKNCPGPVYRIMTQCWQHQPEDRPNFAIILERIEYCTQDPDVINTALPIEYGPLVEEEEKVPVRPKDPEGVPPLLVSQQAKREEERSPAAPPPLPTTSSGKAAKKPTAAEISVRVPRGPAVEGGHVNMAFSQSNPPSELHKVHGSRNKPTSLWNPTYGSWFTEKPTKKNNPIAKKEPHDRGNLGLEGSCTVPPNVATGRLPGASLLLEPSSLTANMKEVPLFRLRHFPCGNVNYGYQQQGLPLEAATAPGAGHYEDTILKSKNSMNQPGP
# Variants of: B1
# Details: with abl1_human ABL1, P00519
# Sequence of abl1_human ABL1, P00519 (P00519 whole entry): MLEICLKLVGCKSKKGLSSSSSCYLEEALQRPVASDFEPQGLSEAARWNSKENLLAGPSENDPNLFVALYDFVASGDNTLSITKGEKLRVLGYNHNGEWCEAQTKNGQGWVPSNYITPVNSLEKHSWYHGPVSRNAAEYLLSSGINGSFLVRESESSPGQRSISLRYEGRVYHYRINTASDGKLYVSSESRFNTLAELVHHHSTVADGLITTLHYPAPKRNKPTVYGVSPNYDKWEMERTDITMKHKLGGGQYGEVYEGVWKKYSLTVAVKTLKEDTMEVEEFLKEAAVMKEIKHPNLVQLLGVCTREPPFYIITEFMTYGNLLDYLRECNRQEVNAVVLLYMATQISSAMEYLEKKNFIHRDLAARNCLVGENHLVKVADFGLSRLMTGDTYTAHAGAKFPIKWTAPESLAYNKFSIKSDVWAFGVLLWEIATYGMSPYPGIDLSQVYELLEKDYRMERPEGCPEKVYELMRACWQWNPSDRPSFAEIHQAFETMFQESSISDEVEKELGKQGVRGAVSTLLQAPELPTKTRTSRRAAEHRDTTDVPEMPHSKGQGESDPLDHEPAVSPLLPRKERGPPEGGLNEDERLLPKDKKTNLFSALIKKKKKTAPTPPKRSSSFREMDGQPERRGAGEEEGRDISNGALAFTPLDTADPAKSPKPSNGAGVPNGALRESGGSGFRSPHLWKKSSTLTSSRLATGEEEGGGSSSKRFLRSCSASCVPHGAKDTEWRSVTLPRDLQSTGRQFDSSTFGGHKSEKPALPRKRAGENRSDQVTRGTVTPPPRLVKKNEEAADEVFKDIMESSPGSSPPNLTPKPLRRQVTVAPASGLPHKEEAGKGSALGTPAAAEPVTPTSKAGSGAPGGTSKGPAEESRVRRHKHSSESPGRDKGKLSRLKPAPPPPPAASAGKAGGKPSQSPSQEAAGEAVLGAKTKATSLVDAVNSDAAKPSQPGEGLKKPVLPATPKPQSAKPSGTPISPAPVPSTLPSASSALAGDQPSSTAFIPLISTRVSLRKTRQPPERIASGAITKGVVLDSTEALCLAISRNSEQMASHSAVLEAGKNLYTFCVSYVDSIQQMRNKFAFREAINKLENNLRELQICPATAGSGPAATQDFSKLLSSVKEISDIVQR
row,effect of a mutation on the interaction,Variant
1,increasing interaction strength,F1245C
2,decreasing interaction strength,I1250T
3,increasing interaction strength,L1196M

# Variants of: B1
# Details: with frk_human FRK
row,effect of a mutation on the interaction,Variant
1,increasing interaction strength,F1245C
2,decreasing interaction strength,I1250T
3,increasing interaction strength,L1196M

# Variants of: B1
# Details: with sh24b_human SH2D4B
row,effect of a mutation on the interaction,Variant
1,increasing interaction strength,F1245C
2,decreasing interaction strength,I1250T
3,increasing interaction strength,L1196M

# Variants of: B1
# Details: with srms_human SRMS
row,effect of a mutation on the interaction,Variant
1,increasing interaction strength,F1245C
2,decreasing interaction strength,I1250T
3,increasing interaction strength,L1196M

# Variants of: B1
# Details: with sta5b_human STAT5B
row,effect of a mutation on the interaction,Variant
1,increasing interaction strength,F1245C
2,decreasing interaction strength,I1250T
3,increasing interaction strength,L1196M

# Variants of: B1
# Details: with syk_human KARS1, Q15046
# Sequence of syk_human KARS1, Q15046 (Q15046 whole entry, looked up): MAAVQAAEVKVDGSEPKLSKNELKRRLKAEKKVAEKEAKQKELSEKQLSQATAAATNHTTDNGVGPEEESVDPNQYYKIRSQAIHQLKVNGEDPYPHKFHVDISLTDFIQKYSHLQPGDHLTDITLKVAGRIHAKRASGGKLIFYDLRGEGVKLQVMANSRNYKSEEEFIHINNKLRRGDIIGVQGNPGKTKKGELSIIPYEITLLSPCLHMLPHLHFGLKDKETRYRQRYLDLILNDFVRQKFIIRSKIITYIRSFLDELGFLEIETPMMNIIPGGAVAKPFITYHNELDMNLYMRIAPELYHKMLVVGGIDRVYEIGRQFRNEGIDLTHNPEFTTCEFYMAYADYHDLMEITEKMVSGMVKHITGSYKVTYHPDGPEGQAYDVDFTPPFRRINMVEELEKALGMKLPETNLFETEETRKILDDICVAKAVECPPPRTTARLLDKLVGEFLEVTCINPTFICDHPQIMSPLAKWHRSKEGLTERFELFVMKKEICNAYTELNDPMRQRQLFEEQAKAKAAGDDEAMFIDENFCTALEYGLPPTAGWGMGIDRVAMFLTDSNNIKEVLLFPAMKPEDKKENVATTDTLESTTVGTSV
row,effect of a mutation on the interaction,Variant
1,increasing interaction strength,F1245C
2,decreasing interaction strength,I1250T
3,increasing interaction strength,L1196M

# Variants of: B1
# Details: with crk_human CRK
row,effect of a mutation on the interaction,Variant
1,increasing interaction strength,F1245C
2,decreasing interaction strength,I1250T
3,increasing interaction strength,L1196M

# Variants of: B1
# Details: with fgr_human FGR
row,effect of a mutation on the interaction,Variant
1,increasing interaction strength,F1245C
2,decreasing interaction strength,I1250T
3,increasing interaction strength,L1196M

# Variants of: B1
# Details: with grb14_human GRB14, Q14449
# Sequence of grb14_human GRB14, Q14449 (Q14449 whole entry): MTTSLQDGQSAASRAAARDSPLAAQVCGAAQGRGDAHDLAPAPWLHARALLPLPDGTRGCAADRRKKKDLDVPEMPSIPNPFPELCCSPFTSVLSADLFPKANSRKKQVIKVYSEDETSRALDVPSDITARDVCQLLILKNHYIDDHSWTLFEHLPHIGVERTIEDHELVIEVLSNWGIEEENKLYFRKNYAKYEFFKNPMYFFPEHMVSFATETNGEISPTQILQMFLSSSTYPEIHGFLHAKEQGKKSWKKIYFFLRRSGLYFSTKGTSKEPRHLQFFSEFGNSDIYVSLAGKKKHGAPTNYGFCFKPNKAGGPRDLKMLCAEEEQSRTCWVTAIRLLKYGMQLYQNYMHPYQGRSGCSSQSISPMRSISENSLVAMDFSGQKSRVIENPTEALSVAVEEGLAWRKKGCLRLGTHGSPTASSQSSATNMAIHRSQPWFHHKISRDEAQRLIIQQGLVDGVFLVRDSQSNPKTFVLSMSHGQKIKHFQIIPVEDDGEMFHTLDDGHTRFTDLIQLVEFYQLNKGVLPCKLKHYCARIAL
row,effect of a mutation on the interaction,Variant
1,increasing interaction strength,F1245C
2,decreasing interaction strength,I1250T
3,increasing interaction strength,L1196M

# Variants of: B1
# Details: with hck_human HCK
row,effect of a mutation on the interaction,Variant
1,increasing interaction strength,F1245C
2,decreasing interaction strength,I1250T
3,increasing interaction strength,L1196M

# Variants of: B1
# Details: with lyn_human LYN
row,effect of a mutation on the interaction,Variant
1,increasing interaction strength,F1245C
2,decreasing interaction strength,I1250T
3,increasing interaction strength,L1196M

# Variants of: B1
# Details: with nck2_human NCK2, O43639
# Sequence of nck2_human NCK2, O43639 (O43639 whole entry): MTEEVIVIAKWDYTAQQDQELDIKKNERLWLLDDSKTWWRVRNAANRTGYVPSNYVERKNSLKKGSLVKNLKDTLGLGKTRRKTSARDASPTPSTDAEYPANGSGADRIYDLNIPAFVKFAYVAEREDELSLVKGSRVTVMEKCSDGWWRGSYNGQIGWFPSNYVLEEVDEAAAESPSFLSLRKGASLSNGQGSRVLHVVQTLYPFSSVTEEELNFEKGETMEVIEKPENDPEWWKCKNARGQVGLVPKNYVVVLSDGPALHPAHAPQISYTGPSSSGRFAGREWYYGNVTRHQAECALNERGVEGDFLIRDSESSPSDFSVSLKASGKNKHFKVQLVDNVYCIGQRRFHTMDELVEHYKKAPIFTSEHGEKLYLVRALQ
row,effect of a mutation on the interaction,Variant
1,increasing interaction strength,F1245C
2,decreasing interaction strength,I1250T
3,increasing interaction strength,L1196M

# Variants of: B1
# Details: with sh2b1_human SH2B1, Q9NRF2
row,effect of a mutation on the interaction,Variant
1,increasing interaction strength,F1245C
2,decreasing interaction strength,I1250T
3,increasing interaction strength,L1196M

# Variants of: B1
# Details: with shb_human SHB
row,effect of a mutation on the interaction,Variant
1,increasing interaction strength,F1245C
2,decreasing interaction strength,I1250T
3,increasing interaction strength,L1196M

# Variants of: B1
# Details: with socs3_human SOCS3, O14543
# Sequence of socs3_human SOCS3, O14543 (O14543 whole entry): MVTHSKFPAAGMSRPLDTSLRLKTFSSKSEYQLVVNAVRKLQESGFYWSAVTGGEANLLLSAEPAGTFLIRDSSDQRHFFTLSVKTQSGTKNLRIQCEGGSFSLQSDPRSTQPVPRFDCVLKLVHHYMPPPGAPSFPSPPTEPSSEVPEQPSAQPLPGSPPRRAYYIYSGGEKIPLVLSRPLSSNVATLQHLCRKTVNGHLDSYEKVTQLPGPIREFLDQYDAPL
row,effect of a mutation on the interaction,Variant
1,increasing interaction strength,F1245C
2,decreasing interaction strength,I1250T
3,increasing interaction strength,L1196M

# Variants of: B1
# Details: with stat2_human STAT2, P52630
# Sequence of stat2_human STAT2, P52630 (P52630 whole entry): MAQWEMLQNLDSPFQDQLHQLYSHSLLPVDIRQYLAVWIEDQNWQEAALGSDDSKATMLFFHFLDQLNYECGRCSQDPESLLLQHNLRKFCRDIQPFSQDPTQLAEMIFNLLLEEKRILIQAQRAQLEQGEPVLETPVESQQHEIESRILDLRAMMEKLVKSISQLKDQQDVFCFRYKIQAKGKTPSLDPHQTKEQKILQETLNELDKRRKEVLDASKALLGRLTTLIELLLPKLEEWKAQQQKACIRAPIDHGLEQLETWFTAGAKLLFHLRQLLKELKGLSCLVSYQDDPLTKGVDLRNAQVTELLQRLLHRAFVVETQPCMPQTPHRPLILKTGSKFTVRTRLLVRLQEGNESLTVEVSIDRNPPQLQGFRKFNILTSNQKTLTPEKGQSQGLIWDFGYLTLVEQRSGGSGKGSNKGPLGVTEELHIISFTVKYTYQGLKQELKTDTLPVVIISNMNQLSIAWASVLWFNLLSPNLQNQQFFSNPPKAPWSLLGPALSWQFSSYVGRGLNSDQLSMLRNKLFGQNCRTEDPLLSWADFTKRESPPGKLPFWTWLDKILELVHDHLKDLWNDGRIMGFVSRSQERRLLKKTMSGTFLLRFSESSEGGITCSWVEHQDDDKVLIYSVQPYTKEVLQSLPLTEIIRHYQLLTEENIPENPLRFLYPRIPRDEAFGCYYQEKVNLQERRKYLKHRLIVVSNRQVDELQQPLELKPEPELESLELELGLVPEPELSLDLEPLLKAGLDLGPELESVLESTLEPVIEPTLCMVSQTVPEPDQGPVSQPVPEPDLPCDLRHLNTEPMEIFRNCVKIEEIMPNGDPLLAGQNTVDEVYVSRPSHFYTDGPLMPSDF
row,effect of a mutation on the interaction,Variant
1,increasing interaction strength,F1245C
2,decreasing interaction strength,I1250T
3,increasing interaction strength,L1196M

# Variants of: B1
# Details: with zap70_human ZAP70, P43403
# Sequence of zap70_human ZAP70, P43403 (P43403 whole entry): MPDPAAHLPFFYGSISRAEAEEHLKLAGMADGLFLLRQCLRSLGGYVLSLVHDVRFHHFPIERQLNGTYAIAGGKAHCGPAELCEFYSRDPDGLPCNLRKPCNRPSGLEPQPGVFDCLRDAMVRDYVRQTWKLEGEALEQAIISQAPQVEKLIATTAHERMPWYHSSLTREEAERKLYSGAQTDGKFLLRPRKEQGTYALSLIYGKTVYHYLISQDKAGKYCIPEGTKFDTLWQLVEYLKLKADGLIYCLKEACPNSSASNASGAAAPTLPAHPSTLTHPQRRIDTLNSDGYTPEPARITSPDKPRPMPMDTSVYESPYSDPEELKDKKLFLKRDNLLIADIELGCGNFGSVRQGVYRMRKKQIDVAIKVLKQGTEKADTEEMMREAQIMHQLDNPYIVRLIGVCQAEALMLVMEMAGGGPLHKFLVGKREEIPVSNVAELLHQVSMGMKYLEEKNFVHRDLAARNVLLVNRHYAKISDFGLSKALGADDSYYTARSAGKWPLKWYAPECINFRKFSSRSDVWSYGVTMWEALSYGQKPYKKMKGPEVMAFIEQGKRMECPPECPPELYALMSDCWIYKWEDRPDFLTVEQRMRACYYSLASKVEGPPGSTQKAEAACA
row,effect of a mutation on the interaction,Variant
1,increasing interaction strength,F1245C
2,decreasing interaction strength,I1250T
3,increasing interaction strength,L1196M

# Variants of: B1
# Details: with rack1_human RACK1, P63244
row,effect of a mutation on the interaction,Variant
1,increasing interaction strength,F1245C
2,decreasing interaction strength,I1250T
3,increasing interaction strength,L1196M
